Kd data for eight molecules are collected here from patent publication US20250115641A1 (published 2025).

Bridge positions count the residues as written; N and C are the ends. Square brackets hold non-standard residues; d marks the D form. Primed or numbered codes have the meaning given here. S5 = C=CCCC[C@](C)(N)C(=O)O; Nle = CCCC[C@H](N)C(=O)O; FITC′ = fluorescein; βAla = NCCC(=O)O

Assay [1] concerns the target T1, human N-terminally GST tagged ASC^PYD (human, UniProt Q9ULZ3 1-106). Nature of the assay: FP.
Assay [2] concerns the target GST-NLRP3PYD. Nature of the assay: fluorescence anisotropy.
Assay [3] deals with T1, human N-terminally GST tagged ASC^PYD. Nature of the assay: fluorescence anisotropy.
Assay [4] addresses T2, human NLRP3^PYD (residues 3-110, C-terminal 6 x histidine) (human, UniProt Q96P20 3-110).
T2 chain: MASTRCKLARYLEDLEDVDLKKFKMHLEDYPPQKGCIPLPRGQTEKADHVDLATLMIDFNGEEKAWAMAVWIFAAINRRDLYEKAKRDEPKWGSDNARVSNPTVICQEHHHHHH
Description: FP.

T1 sequence (Q9ULZ3 1-106): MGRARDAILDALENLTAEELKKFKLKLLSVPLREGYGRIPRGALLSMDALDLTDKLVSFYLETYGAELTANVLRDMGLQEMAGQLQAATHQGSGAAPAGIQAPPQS

B1: fSAH-POP1-12 (peptide)
peptide: {FITC′}-[βAla]Q[S5]LRK[S5]QWKLWTA-NH2
modifications: staple 3-7
The Kd is a measure of binding affinity in units of concentration. The low end stands for tighter binding, the high end for weaker binding. On to B1, for which the Kd came to 0.59 µM in assay [1] and 20 µM in assay [2].

B2: fSAH-POP1-5 (peptide)
peptide: AQXLKKXKXKLGTA
modifications: N-terminal fluorescein (FITC) on β-alanine; S5 = (S)-2-(4-pentenyl)alanine residues covalently linked (hydrocarbon staple); made on Rink amide resin
Regarding B2, the Kd in assay [3] was over 56 µM; in assay [1], over 10 µM; in assay [2] it was 30 µM.

B3: fSAH-POP1-6 (peptide)
peptide: XQXLKKXKXKLWTA
modifications: N-terminal fluorescein (FITC) on β-alanine; S5 = (S)-2-(4-pentenyl)alanine residues covalently linked (hydrocarbon staple); made on Rink amide resin
In the case of B3, the figures for the Kd in assay [3] and in assay [2] were over 56 µM and 43 µM, respectively.

B4: fPOP1-H2 (peptide)
peptide: {FITC′}-[βAla]EELKKFK[Nle]KLGTV-NH2
As for B4, the Kd in assay [3] was over 56 µM; in assay [1] it was over 10 µM; in assay [4] it was 9.2 µM; in assay [2], 27 µM.

B5: fSAH-POP1-13 (peptide)
peptide: {FITC′}-[βAla]Q[S5]LRR[S5]QWKLWTA-NH2
modifications: staple 3-7
With B5, the Kd in assay [2] was found to be 12 µM.

B6: fSAH-POP1-16 (peptide)
peptide: {FITC′}-[βAla]Q[S5]LRR[S5]QWKLWTS-NH2
modifications: staple 3-7
Molecule B6 displayed a Kd in assay [2] of 15 µM.

B7: fSAH-POP1-10 (peptide)
peptide: AQXLRKXQXKLWTA
modifications: not fully specified; N-terminal fluorescein (FITC) on β-alanine; S5 = (S)-2-(4-pentenyl)alanine residues covalently linked (hydrocarbon staple); norleucine (NL) at the position of M25 of POP1; made on Rink amide resin
Turning to B7, the Kd is over 56 µM in assay [3] and 31 µM in assay [2].

B8: fSAH-POP1-4 (peptide)
peptide: AEXLKKXKXKLGTV
modifications: N-terminal fluorescein (FITC) on β-alanine; S5 = (S)-2-(4-pentenyl)alanine residues covalently linked (hydrocarbon staple); made on Rink amide resin
For B8, the Kd in assay [3] was over 56 µM; in assay [1], over 10 µM; in assay [2] it was 32 µM.
